Results reported in article PMC549567.
Read-outs that look alike come from different tables or passages of the source.

Legend:
Assay in all cases: EMSA
[1] = target: T1, MutS (Escherichia coli, UniProt P23909 1-853)
T1 sequence: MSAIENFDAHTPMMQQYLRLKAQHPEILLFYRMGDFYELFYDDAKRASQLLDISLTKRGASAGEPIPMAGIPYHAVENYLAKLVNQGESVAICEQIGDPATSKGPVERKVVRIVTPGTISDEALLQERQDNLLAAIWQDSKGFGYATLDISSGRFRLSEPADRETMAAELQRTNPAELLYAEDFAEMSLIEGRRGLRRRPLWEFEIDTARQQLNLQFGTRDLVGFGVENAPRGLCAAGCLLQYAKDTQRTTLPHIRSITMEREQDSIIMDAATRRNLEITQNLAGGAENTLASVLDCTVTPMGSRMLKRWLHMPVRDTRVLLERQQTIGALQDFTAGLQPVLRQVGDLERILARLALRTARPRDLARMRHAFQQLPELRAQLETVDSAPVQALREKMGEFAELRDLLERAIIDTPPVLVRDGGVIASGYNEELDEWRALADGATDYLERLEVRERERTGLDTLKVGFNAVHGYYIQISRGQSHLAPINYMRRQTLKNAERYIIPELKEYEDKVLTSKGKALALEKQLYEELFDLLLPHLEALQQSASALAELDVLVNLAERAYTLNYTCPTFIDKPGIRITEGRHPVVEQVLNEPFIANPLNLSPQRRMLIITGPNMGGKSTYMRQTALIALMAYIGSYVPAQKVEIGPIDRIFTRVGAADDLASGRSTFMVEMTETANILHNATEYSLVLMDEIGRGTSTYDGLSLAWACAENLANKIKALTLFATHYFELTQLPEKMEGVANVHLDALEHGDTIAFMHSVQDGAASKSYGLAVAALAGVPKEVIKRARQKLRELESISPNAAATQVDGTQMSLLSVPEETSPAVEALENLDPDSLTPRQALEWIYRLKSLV

[2] = target: T2, MutSΔ800 (Escherichia coli, UniProt P23909 1-800, del801-853)
T2 sequence: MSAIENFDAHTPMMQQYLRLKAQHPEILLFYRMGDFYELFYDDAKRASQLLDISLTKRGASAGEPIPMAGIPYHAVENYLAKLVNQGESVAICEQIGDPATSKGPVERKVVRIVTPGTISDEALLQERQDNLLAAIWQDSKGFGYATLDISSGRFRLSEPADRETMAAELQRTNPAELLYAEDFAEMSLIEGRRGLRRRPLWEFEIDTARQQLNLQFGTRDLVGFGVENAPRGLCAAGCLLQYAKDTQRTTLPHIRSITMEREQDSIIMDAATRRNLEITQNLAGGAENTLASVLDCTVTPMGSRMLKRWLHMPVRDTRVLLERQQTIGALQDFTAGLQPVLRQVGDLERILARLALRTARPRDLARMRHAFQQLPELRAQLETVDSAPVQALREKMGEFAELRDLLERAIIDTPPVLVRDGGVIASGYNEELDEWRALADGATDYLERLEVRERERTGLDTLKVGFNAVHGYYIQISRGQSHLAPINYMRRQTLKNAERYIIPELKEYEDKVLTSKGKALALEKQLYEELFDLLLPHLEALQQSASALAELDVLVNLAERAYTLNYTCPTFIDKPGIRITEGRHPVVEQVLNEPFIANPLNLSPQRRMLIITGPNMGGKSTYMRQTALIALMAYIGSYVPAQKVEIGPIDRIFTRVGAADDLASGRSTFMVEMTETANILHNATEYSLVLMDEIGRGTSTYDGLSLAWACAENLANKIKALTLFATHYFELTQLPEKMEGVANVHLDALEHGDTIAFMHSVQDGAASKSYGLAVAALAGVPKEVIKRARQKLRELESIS

[3] = target: T1, MutS; remark: listed apart in the source
[4] = target: T2, MutSΔ800; remark: listed apart in the source

B1: O6-meG-C duplex (dsDNA)
DNA 1: ATACGGAAGTTAAAGTGCGGATCATCTCTAG
DNA 2: CTAGAGATGATCCGCACTTTAACTTCCGTAT
modifications: O6-methylguanine at G17 of strand 1
binding result [1]: binds | binding result [2]: binds

B2: Xlink unplatinated homoduplex GG-CC (dsDNA)
DNA 1: CCTCTCCTTGGTCTTCTCCTCTCC
DNA 2: GGAGAGGAGAAGACCAAGGAGAGG
binding result [3]: no binding | binding result [4]: no binding

B3: Xlink platinated GG-CC (dsDNA)
DNA 1: CCTCTCCTTGGTCTTCTCCTCTCC
DNA 2: GGAGAGGAGAAGACCAAGGAGAGG
modifications: cisplatin intrastrand 1,2-GG cross-link at G10-G11 of strand 1
binding result [3]: binds | binding result [4]: no binding
